Assays:
[1] = target: T1, ArcA-P (Shewanella oneidensis MR-1) (UniProt Q8EAB9); experiment: MST; settings: EMSA: 2 mM EDTA, 20 mM KCl, 0.5 mM DTT, 4% Ficoll-400, pH 8.0, 2 ug poly(dI-dC), 10 nM probe, 10 uM cAMP for Crp; MST: 1x PBS pH 7.4, 0.05% Tween-20, 25 C
T1 sequence: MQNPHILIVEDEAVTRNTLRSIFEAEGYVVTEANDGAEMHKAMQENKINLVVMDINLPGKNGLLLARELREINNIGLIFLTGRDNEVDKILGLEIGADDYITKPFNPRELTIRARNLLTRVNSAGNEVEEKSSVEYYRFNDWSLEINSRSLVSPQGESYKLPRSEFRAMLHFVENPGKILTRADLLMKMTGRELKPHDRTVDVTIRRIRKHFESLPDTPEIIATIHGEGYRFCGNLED

[2] = target: T2, MBP-Crp-His6 (Shewanella oneidensis MR-1) (UniProt Q8EJ49); experiment: MST; settings: EMSA: 2 mM EDTA, 20 mM KCl, 0.5 mM DTT, 4% Ficoll-400, pH 8.0, 2 ug poly(dI-dC), 10 nM probe, 10 uM cAMP for Crp; MST: 1x PBS pH 7.4, 0.05% Tween-20, 25 C
T2 sequence: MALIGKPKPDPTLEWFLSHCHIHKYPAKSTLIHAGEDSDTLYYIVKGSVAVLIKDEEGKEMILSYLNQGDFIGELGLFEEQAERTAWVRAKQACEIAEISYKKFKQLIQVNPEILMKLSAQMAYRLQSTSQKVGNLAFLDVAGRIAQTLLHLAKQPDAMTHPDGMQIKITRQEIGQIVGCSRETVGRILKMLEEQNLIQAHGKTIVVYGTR

[3] = target: T1, ArcA-P (Shewanella oneidensis MR-1); experiment: EMSA; settings: EMSA: 2 mM EDTA, 20 mM KCl, 0.5 mM DTT, 4% Ficoll-400, pH 8.0, 2 ug poly(dI-dC), 10 nM probe, 10 uM cAMP for Crp; MST: 1x PBS pH 7.4, 0.05% Tween-20, 25 C
[4] = target: T3, MBP-Crp (Shewanella oneidensis MR-1) (UniProt Q8EJ49); experiment: EMSA; settings: EMSA: 2 mM EDTA, 20 mM KCl, 0.5 mM DTT, 4% Ficoll-400, pH 8.0, 2 ug poly(dI-dC), 10 nM probe, 10 uM cAMP for Crp; MST: 1x PBS pH 7.4, 0.05% Tween-20, 25 C
T3 sequence: T2 sequence

[5] = tested on: ArcA-P (Shewanella oneidensis MR-1); experiment: MST; settings: phosphorylated ArcA; EMSA: 2 mM EDTA, 20 mM KCl, 0.5 mM DTT, 4% Ficoll-400, pH 8.0, 2 ug poly(dI-dC), 10 nM probe, 10 uM cAMP for Crp; MST: 1x PBS pH 7.4, 0.05% Tween-20, 25 C
[6] = tested on: MBP-Crp-His6 (Shewanella oneidensis MR-1); experiment: MST; settings: EMSA: 2 mM EDTA, 20 mM KCl, 0.5 mM DTT, 4% Ficoll-400, pH 8.0, 2 ug poly(dI-dC), 10 nM probe, 10 uM cAMP for Crp; MST: 1x PBS pH 7.4, 0.05% Tween-20, 25 C

Row | Substance | binding [1] | binding [2] | binding [3] | binding [4] | Kd [5] [nM] | Kd [6] [nM]
1 | AATAACAACCTCAACAAACTCATGTAAATGGCTAAGTTATACCACGGAACAGATAAGAGATAACTACTTTAGTCTAACTAAACAGGCAATTTAGCATTAAAGATATTTCAGAAACAATAAACCACACGATAAAATTTGAGCAGCAAAAAGGGGTAGTGTTCATAATTCTGTGTCATTTCAGTAAAATATTCAAAAACAGGAATGACAC (double strand) [ndh promoter probe (Pndh)] | binds | binds | binds | binds |  | 
2 | nqr1 promoter probe (PnqrA1) |  |  |  |  | 560 | 120
3 | nqr2 promoter probe (PnqrA2) |  |  |  |  | 680 | 2020

Source: article PMC12210985
